From publication PMC7076459, “Biochemical and Molecular Characterization of PvNTD2, a Nucleotidase Highly Expressed in Nodules from Phaseolus vulgaris” (Plants, 2020)

T1: PvNTD2 (Phaseolus vulgaris, UniProt V7AIP8)
T1 construct: gene PHAVU_011G182400g; ORF without predicted signal peptide (cleavage predicted between 24 and 25)
T1 sequence (V7AIP8 25-269): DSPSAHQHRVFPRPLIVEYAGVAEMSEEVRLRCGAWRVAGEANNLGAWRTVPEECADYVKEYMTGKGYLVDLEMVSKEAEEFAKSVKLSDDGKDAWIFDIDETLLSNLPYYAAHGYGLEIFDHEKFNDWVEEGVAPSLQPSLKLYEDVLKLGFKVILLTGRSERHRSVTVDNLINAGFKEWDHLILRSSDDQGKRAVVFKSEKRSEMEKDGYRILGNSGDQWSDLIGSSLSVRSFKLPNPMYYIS

B1: PvNTD2 (Phaseolus vulgaris) (protein)
chain: T1 sequence (V7AIP8 25-269)
notes: ORF without predicted signal peptide (cleavage predicted between 24 and 25)

Legend:
PvNTD2 = target: T1, PvNTD2; experiment: phosphate release, inhibition of phosphatase activity; type: biochemical; settings: 2 mM UMP substrate (other nucleotides also tested), pH 7, 1 mM MgCl2, 37 °C; reaction product
[1] = substrate: Nc1ncnc2c1ncn2[C@@H]1O[C@H](COP(=O)(O)O)[C@@H](O)[C@H]1O; experiment: phosphate release, Hanes-Woolf plot; type: biochemical, Phaseolus vulgaris; settings: 50 mM TES-NaOH pH 7, 1 mM MgCl2, 37 °C
Source text: (§1) phosphate release, Hanes-Woolf plot on PvNTD2

[2] = substrate: O=c1[nH]c(=O)c2ncn([C@@H]3O[C@H](COP(=O)(O)O)[C@@H](O)[C@H]3O)c2[nH]1; experiment: phosphate release, Hanes-Woolf plot; type: biochemical, Phaseolus vulgaris; settings: 50 mM TES-NaOH pH 7, 1 mM MgCl2, 37 °C
Source text: as §1

[3] = substrate: O=c1ccn([C@@H]2O[C@H](COP(=O)(O)O)[C@@H](O)[C@H]2O)c(=O)[nH]1; experiment: phosphate release, Hanes-Woolf plot; type: biochemical, Phaseolus vulgaris; settings: 50 mM TES-NaOH pH 7, 1 mM MgCl2, 37 °C
Source text: as §1

[4] = substrate: Cc1cn([C@H]2C[C@H](O)[C@@H](COP(=O)(O)O)O2)c(=O)[nH]c1=O; experiment: phosphate release, Hanes-Woolf plot; type: biochemical, Phaseolus vulgaris; settings: 50 mM TES-NaOH pH 7, 1 mM MgCl2, 37 °C
Source text: as §1

| Molecule | % activity at 0.2 mM (PvNTD2) | Km [1] | Vmax [1] | Km [2] | Vmax [2] | Km [3] | Vmax [3] | Km [4] | Vmax [4] |
| --- | --- | --- | --- | --- | --- | --- | --- | --- | --- |
| Nc1ncnc2c1ncn2[C@@H]1O[C@H](CO)[C@@H](O)[C@H]1O [adenosine] | The activity of the recombinant protein was strongly inhibited in the presence of adenosine | – | – | – | – | – | – | – | – |
| B1 | – | 11 µM | 1.46 µmol/min/mg | 95 µM | 4.22 µmol/min/mg | 39 µM | 4 µmol/min/mg | 63 µM | 4.08 µmol/min/mg |
